Here are results for three molecules from US20240376208A1 (AFFIMED, published 2024).

Read-outs that look alike come from different tables or passages of the source.

Assay [1] concerns the target T1, EGFR on tumor target cells (MCF-7, Daudi, DK-MG, HCT-116) (UniProt P00533 25-1210, limits assumed). In words: cell-based or functional assay.
Assay [2] deals with T1, EGFR on tumor target cells (MCF-7, …). In words: cell-based or functional assay. This is another data set of the same source.
Assay [3] deals with CD16A on primary human NK cells (human, UniProt P08637 17-254). In words: cell-based or functional assay.
Assay [4] has as its target T2, biotinylated dimeric CD16A antigen (human, UniProt P08637 17-208, limits assumed, biotinylated (site not stated)).
T2 construct: Soluble antigen; also called soluble CD16A antigen
In words: ELISA, biotinylated dimeric CD16A titrated on coated construct. The method, then: (§1) For the capturing approach, 96-well ELISA plates (Immuno Maxisorp, Nunc) were coated overnight at 4° C. with His-tagged human EGFR or BCMA extracellular domain at concentrations of 3.0 or 0.4 μg/mL, respectively. After blocking with 3% (w/v) skimmed milk powder dissolved in phosphate buffered saline (PBS), antigen coated plates were used for capturing of different multivalent bispecific engagers at concentrations of 3-5 μg/mL in PBS containing 0.3% (w/v) skimmed milk powder. After washing three times with 300 μL per well of PBS containing 0.1% (v/v) Tween 20, plates were incubated with serial dilutions of biotinylated dimeric or monomeric CD16A antigen in PBS containing 0.3% (w/v) skimmed milk powder for 1.5 h at room temperature. After washing, plates were incubated with the detection conjugate Streptavidin HRP, 1:10,000 diluted in PBS containing 0.3% (w/v) skimmed milk powder for 1 h followed by washing and incubation with tetramethylbenzidine substrate (Seramun) for 1-2 min. Reaction was stopped by addition of 0.5 M H₂SO₄ (100 μL/well). Absorbance was measured at 450 nm using a multiwell plate reader, plotted and EC₅₀ values were determined by fitting a nonlinear regression model to sigmoidal dose-response curves (four parameters logistic fit) using GraphPad Prism software.
(§2) Concentration dependent binding of antibody constructs to coated recombinant CD16A antigen, or of soluble monomeric or dimeric CD16 antigen variants to coated or target antigen captured antibody constructs was analyzed in ELISA. Half maximal binding concentrations (EC₅₀) were determined by fitting a nonlinear regression model to sigmoidal dose-response curves (four parameters logistic fit) using GraphPad Prism software.
A general note: In an ELISA, binding on a coated surface is turned into a signal by an enzyme label.

In assay [5] the target is T3, biotinylated monomeric CD16A antigen (human, UniProt P08637 17-208, limits assumed, biotinylated (site not stated)).
T3 construct: Soluble antigen; also called soluble CD16A antigen
In words: ELISA, biotinylated monomeric CD16A titrated on coated construct. Here is the method:
as §1, §2

Assay [6] deals with T4, recombinant CD16A 158F fused to monomeric human Fc (human, UniProt P08637 17-208).
T4 construct: also called recombinant CD16 antigen variant; not shown: monomeric human Fc
In words: ELISA, construct titrated on coated CD16A 158F fused to monomeric human Fc. The method, then:
To assess binding of EGFR/CD16 or BCMA/CD16 antibodies to coated antigen in ELISA, 96-well ELISA plates (Immuno Maxisorp, Nunc) were coated overnight at 4° C. with recombinant CD16 antigen variants fused to monomeric human Fc at a concentration of 1.5 μg/mL in 100 mM carbonate-bicarbonate buffer. After blocking with 3% (w/v) skimmed milk powder dissolved in phosphate buffered saline (PBS) serial dilutions of bispecific antibody constructs were incubated on the antigen coated plates for 1.5 h at room temperature. […] After washing, plates were incubated with tetramethylbenzidine substrate (Seramun) for 1-2 min. Reaction was stopped by addition of 0.5 M H₂SO₄ (100 μL/well). Absorbance was measured at 450 nm using a multiwell plate reader, plotted and EC₅₀ values were determined by fitting a nonlinear regression model to sigmoidal dose-response curves (four parameters logistic fit) using GraphPad Prism software.
as §2

The target of assay [7] is recombinant CD16A 158V fused to monomeric human Fc (human, UniProt P08637 17-208). As to the kind of experiment: ELISA, construct titrated on coated CD16A 158V fused to monomeric human Fc.
The target in assay [8] is T2, biotinylated dimeric CD16A antigen. In words: ELISA, biotinylated dimeric CD16A titrated on construct captured by coated His-tagged human EGFR extracellular domain. Here is the method:
as §1, §2

Assay [9] deals with T3, biotinylated monomeric CD16A antigen. As to the kind of experiment: ELISA, biotinylated monomeric CD16A titrated on construct captured by coated His-tagged human EGFR extracellular domain. Here is the method: as §1, §2
In assay [10] the target is T1, EGFR on tumor target cells (MCF-7, …). As to the kind of experiment: cell-based or functional assay. This is another data set of the same source.

Chain of CD16A on primary human NK cells (P08637 17-254 limits assumed): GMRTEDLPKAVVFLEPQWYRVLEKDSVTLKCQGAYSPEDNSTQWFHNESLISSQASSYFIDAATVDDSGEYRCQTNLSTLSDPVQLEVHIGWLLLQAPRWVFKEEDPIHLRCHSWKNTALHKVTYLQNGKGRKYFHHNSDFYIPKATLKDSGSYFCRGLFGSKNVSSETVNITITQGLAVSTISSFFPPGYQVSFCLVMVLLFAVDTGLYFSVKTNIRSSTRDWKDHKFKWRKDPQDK
T3 sequence (P08637 17-208 limits assumed): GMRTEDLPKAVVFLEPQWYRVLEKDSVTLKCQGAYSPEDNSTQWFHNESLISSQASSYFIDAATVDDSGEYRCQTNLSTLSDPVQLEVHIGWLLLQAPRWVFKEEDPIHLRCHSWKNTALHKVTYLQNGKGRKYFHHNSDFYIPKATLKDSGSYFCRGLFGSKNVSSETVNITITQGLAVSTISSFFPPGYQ
T2 sequence (P08637 17-208 limits assumed): as above
Chain of recombinant CD16A 158V fused to monomeric human Fc (P08637 17-208 F176V): as the sequence (P08637 17-208 limits assumed) above, with F160V counted along it
T4 sequence (P08637 17-208): as the sequence (P08637 17-208 limits assumed) above

B1: aBi-scDb-Fc_05 (bispecific antibody)
chain 1: DKTHTCPPCPAPEFEGGPSVFLFPPKPKDTLMISRTPEVTCVVVAVSHEDPEVKFNWYVDGVEVHNAKTKPREEQYNSTYRVVSVLTVLHQDWLNGKEYKCKVSNKALPAPIEKTISKAKGQPREPQVYTLPPSREEMTKNQVSLTCLVKGFYPSDIAVEWESNGQPENNYKTTPPVLDSDGSFFLTSKLTVDKSRWQQGNVFSCSVMHEALHNHYTQKSLSLSPGGGGGSGGGGSSYVLTQPSSVSVAPGQTATISCGGHNIGSKNVHWYQQRPGQSPVLVIYQDNKRPSGIPERFSGSNSGNTATLTISGTQAMDEADYYCQVWDNYSVLFGGGTKLTVLGGSGGSQVQLVQSGAEVKKPGESLKVSCKASGYTFTSYYMHWVRQAPGQGLEWMGAIEPMYGSTSYAQKFQGRVTMTRDTSTSTVYMELSSLRSEDTAVYYCARGSAYYYDFADYWGQGTLVTVSSGGSGGSGGSGGSGGSGGSSYVLTQPSSVSVAPGQTATISCGGHNIGSKNVHWYQQRPGQSPVLVIYQDNKRPSGIPERFSGSNSGNTATLTISGTQAMDEADYYCQVWDNYSVLFGGGTKLTVLGGSGGSQVQLVQSGAEVKKPGESLKVSCKASGYTFTSYYMHWVRQAPGQGLEWMGAIEPMYGSTSYAQKFQGRVTMTRDTSTSTVYMELSSLRSEDTAVYYCARGSAYYYDFADYWGQGTLVTVSSAAAGSHHHHHH
chain 2: QVQLQESGPGLVKPSETLSLTCTVSGGSVSSGSYYWSWIRQPPGKGLEWIGYIYYSGSTNYNPSLKSRVTISVDTSKNQFSLKLSSVTAADTAVYYCARNPISIPAFDIWGQGTMVTVSSGGSGGSGGSGGSGGSGGSQPVLTQPPSVSVAPGKTARITCGGNNIGSKSVHWYQQKPGQAPVLVIYYDSDRPSGIPERFSGSNSGNTATLTISRVEAGDEADYYCQVWDTSSDHVLFGGGTKLTVLDKTHTCPPCPAPEFEGGPSVFLFPPKPKDTLMISRTPEVTCVVVAVSHEDPEVKFNWYVDGVEVHNAKTKPREEQYNSTYRVVSVLTVLHQDWLNGKEYKCKVSNKALPAPIEKTISKAKGQPREPQVYTLPPSREEMTKNQVSLYCLVKGFYPSDIAVEWESNGQPENNYKTTPPVLDSDGSFFLYSKLTVDKSRWQQGNVFSCSVMHEALHNHYTQKSLSLSPGGGGGSGGGGSSYVLTQPSSVSVAPGQTATISCGGHNIGSKNVHWYQQRPGQSPVLVIYQDNKRPSGIPERFSGSNSGNTATLTISGTQAMDEADYYCQVWDNYSVLFGGGTKLTVLGGSGGSQVQLVQSGAEVKKPGESLKVSCKASGYTFTSYYMHWVRQAPGQGLEWMGAIEPMYGSTSYAQKFQGRVTMTRDTSTSTVYMELSSLRSEDTAVYYCARGSAYYYDFADYWGQGTLVTVSSGGSGGSGGSGGSGGSGGSSYVLTQPSSVSVAPGQTATISCGGHNIGSKNVHWYQQRPGQSPVLVIYQDNKRPSGIPERFSGSNSGNTATLTISGTQAMDEADYYCQVWDNYSVLFGGGTKLTVLGGSGGSQVQLVQSGAEVKKPGESLKVSCKASGYTFTSYYMHWVRQAPGQGLEWMGAIEPMYGSTSYAQKFQGRVTMTRDTSTSTVYMELSSLRSEDTAVYYCARGSAYYYDFADYWGQGTLVTVSSGAAEPEA
notes: Asymmetric knob/hole Fc construct with four anti-CD16A Fv domains and only one anti-EGFR Fv domain; all other places print 158 and 159
Broadly, the EC50 is the concentration at which the effect is half-maximal. As for B1, in assay [1], the “EC50 [pM], 4 h calcein-release cytotoxicity on MCF-7 target cells, NK cells E:T 5:1” value is 5 pM. For the same molecule, in assay [1], the “Emax [%], 4 h calcein-release cytotoxicity on MCF-7 target cells, NK cells E:T 5:1” value was 34.2%. In addition, in assay [2], the “EC50 [pM], 4 h calcein-release cytotoxicity on Daudi target cells, NK cells E:T 5:1” value is 39.9 pM. Also, the “Emax [%], 4 h calcein-release cytotoxicity on Daudi target cells, NK cells E:T 5:1” value in assay [2] was 27.2%. For the same molecule, in assay [3], the “Emax [%], 4 h calcein-release NK cell fratricide assay, E:T 1:1” value is 27.1%. In addition, the EC50 in assay [4] turned out to be 0.99 nM; in assay [5], 4.51 nM; in assay [6], 0.2 nM; in assay [7], 0.16 nM; in assay [8] it was 3 nM; in assay [9] it was 5.54 nM.

B2: scFv-Fc-scDb_04 (bispecific antibody)
chain: QVQLQESGPGLVKPSETLSLTCTVSGGSVSSGSYYWSWIRQPPGKGLEWIGYIYYSGSTNYNPSLKSRVTISVDTSKNQFSLKLSSVTAADTAVYYCARNPISIPAFDIWGQGTMVTVSSGGSGGSGGSGGSGGSGGSQPVLTQPPSVSVAPGKTARITCGGNNIGSKSVHWYQQKPGQAPVLVIYYDSDRPSGIPERFSGSNSGNTATLTISRVEAGDEADYYCQVWDTSSDHVLFGGGTKLTVLGGGGSDKTHTCPPCPAPEFEGGPSVFLFPPKPKDTLMISRTPEVTCVVVAVSHEDPEVKFNWYVDGVEVHNAKTKPREEQYGSTYRVVSVLTVLHQDWLNGKEYKCKVSNKALPAPIEKTISKAKGQPREPQVYTLPPSREEMTKNQVSLTCLVKGFYPSDIAVEWESNGQPENNYKTTPPVLDSDGSFFLYSKLTVDKSRWQQGNVFSCSVMHEALHNHYTQKSLSLSPGGGGGSGGGGSSYELTQPLSVSVALGQTARITCGGHNIGSKNVHWYQQKPGQAPVLVIYQDNKRPSGIPERFSGSNSGNTATLTISRAQAGDEADYYCQVWDNYNVLFGCGTKLTVLGGSGGSQVQLVQSGAEVKKPGASVKVSCKASGYTFTSYYMHWVRQAPGQCLEWMGAIEPTYGSTSYAQKFQGRVTMTRDTSTSTVYMELSSLRSEDTAVYYCARGSAYYYDFADYWGQGTLVTVSSGGSGGSGGSGGSGGSGGSSYELTQPLSVSVALGQTARITCGGHNIGSKNVHWYQQKPGQAPVLVIYQDNKRPSGIPERFSGSNSGNTATLTISRAQAGDEADYYCQVWDNYNVLFGCGTKLTVLGGSGGSQVQLVQSGAEVKKPGASVKVSCKASGYTFTSYYMHWVRQAPGQCLEWMGAIEPTYGSTSYAQKFQGRVTMTRDTSTSTVYMELSSLRSEDTAVYYCARGSAYYYDFADYWGQGTLVTVSS
As for B2, the “Emax [%], 4 h calcein-release cytotoxicity on Daudi target cells, NK cells E:T 5:1” value in assay [10] is 22.6%.

B3: scFv-IgAb_43 (bispecific antibody)
heavy: QVQLQESGPGLVKPSETLSLTCTVSGGSVSSGSYYWSWIRQPPGKGLEWIGYIYYSGSTNYNPSLKSRVTISVDTSKNQFSLKLSSVTAADTAVYYCARNPISIPAFDIWGQGTMVTVSSASTKGPSVFPLAPSSKSTSGGTAALGCLVKDYFPEPVTVSWNSGALTSGVHTFPAVLQSSGLYSLSSVVTVPSSSLGTQTYICNVNHKPSNTKVDKKVEPKSCDKTHTCPPCPAPEFEGGPSVFLFPPKPKDTLMISRTPEVTCVVVAVSHEDPEVKFNWYVDGVEVHNAKTKPREEQYNSTYRVVSVLTVLHQDWLNGKEYKCKVSNKALPAPIEKTISKAKGQPREPQVYTLPPSREEMTKNQVSLTCLVKGFYPSDIAVEWESNGQPENNYKTTPPVLDSDGSFFLYSKLTVDKSRWQQGNVFSCSVMHEALHNHYTQKSLSLSPGGGGGSGGGGSGGGGSGGGGSGGGGSGGGGSSYVLTQPSSVSVAPGQTATISCGGHNIGSKNVHWYQQRPGQSPVLVIYQDNKRPSGIPERFSGSNSGNTATLTISGTQAMDEADYYCQVWDNYSVLFGGGTKLTVLGGSGGSGGSGGSGGSGGSGGSQVQLVQSGAEVKKPGESLKVSCKASGYTFTSYYMHWVRQAPGQGLEWMGAIEPMYGSTSYAQKFQGRVTMTRDTSTSTVYMELSSLRSEDTAVYYCARGSAYYYDFADYWGQGTLVTVSS
light: QPVLTQPPSVSVAPGKTARITCGGNNIGSKSVHWYQQKPGQAPVLVIYYDSDRPSGIPERFSGSNSGNTATLTISRVEAGDEADYYCQVWDTSSDHVLFGGGTKLTVLGQPKAAPSVTLFPPSSEELQANKATLVCLISDFYPGAVTVAWKADSSPVKAGVETTTPSKQSNNKYAASSYLSLTPEQWKSHRSYSCQVTHEGSTVEKTVAPTECS
In the case of B3, in assay [1], the “EC50 [pM], 4 h calcein-release cytotoxicity on MCF-7 target cells, NK cells E:T 5:1” value is 9.2 pM and the “Emax [%], 4 h calcein-release cytotoxicity on MCF-7 target cells, NK cells E:T 5:1” value was 16.2%. Further, in [2], the “EC50 [pM], 4 h calcein-release cytotoxicity on Daudi target cells, NK cells E:T 5:1” value is 151 pM and the “Emax [%], 4 h calcein-release cytotoxicity on Daudi target cells, NK cells E:T 5:1” value was 10%. Also, in assay [3], the “EC50 [pM], 4 h calcein-release NK cell fratricide assay, E:T 1:1” value was 3510 pM and the “Emax [%], 4 h calcein-release NK cell fratricide assay, E:T 1:1” value is 6.9%. Besides, the “Emax [%], 4 h calcein-release cytotoxicity on Daudi target cells, NK cells E:T 5:1” value in [10] was 9.3%.
